According to US20200123266A1 (Memorial Sloan Kettering, published 2020):
Ends that are not written are not given here. * marks the point of attachment. Biotin = O=C1N[C@H]2[C@H](CS[C@H]2CCCCC(=O)*)N1

Assays:
ET140-p25 = target: T1, ET140-p25 (human, cysteine pairing not given here); experiment: peptide ELISA, biotin peptide on streptavidin plate, antibody 1 ug/mL
T1 construct: also called peptide 25
T1 peptide: Biotin-SGSGLRCSSNTPPLTCQRY
Method: (§1) The peptides were coated onto Streptavidin plates at 2 ug/mL in PBST (PBS+0.05% Tween-20). After washing and blocking with 3% BSA. After washing, 1 ug/mL ET140-3, ET140-24, ET140-54 or ET901 mIgG1 was added to the wells, respectively. “mIgG1” used in all Examples represents that the variable region is fully human and the Fc part is mouse IgG1. Then HRP anti-mouse IgG detection antibody was added to each well. Finally, the color was developed using TMB substrate. A450 was recorded for data analysis.

ET140-p26 = target: T2, ET140-p26 (human, cysteine pairing not given here); experiment: as above
T2 construct: also called peptide 26
T2 peptide: Biotin-SGSGRCSSNTPPLTCQRYC
Method: as §1

B1: ET140-153 mIgG1 (antibody, V domains shown)
VH: QVQLVQSGAEVKKPGSSVKVSCKASGGTFSSYAISWVRQAPGQGLEWMGRIIPILGIANYAQKFQGRVTITADKSTSTAYMELSSLRSEDTAVYYCARGGYYSHDMWSEDWGQGTLVTVSS
VL: LPVLTQPPSASGTPGQRVTISCSGRSSNIGSNSVNWYRQLPGAAPKLLIYSNNQRPPGVPVRFSGSKSGTSASLAISGLQSEDEATYYCATWDDNLNVHYVFGTGTKVTVLG
notes: also called ET140-3 mIgG1; ET140-3
Question: Which A450 (ET140-p25) does the source give for B1 here?
Answer: 0.583

Question: What about the A450 (ET140-p26) of the same binder?
Answer: 0.225
